The record followed here is publication PMC4939007, “The GH51 α-L-arabinofuranosidase from Paenibacillus sp. THS1 is multifunctional, hydrolyzing main-chain and side-chain glycosidic bonds in heteroxylans” (Biotechnology for Biofuels, 2016).

As usually defined, the Km is the concentration of substrate that gives half-maximal velocity. A word on the kcat: it is the maximal rate divided by the concentration of active sites. Usually kcat/Km stands for the turnover number divided by the Michaelis constant.

Assay in all cases: purified protein
Series [1] deals with O=[N+]([O-])c1ccc(O[C@@H]2OC[C@@H](O)[C@H](O)[C@H]2O)cc1. Conditions: 50 mM sodium phosphate pH 6.5, 1 mg/mL BSA, 60 °C, 0–40 mM substrate, authors' caution: maximum substrate below 2 x KM.
Series [2] concerns O=[N+]([O-])c1ccc(O[C@@H]2O[C@@H]([C@H](O)CO)[C@H](O)[C@H]2O)cc1. Particulars: 50 mM sodium phosphate pH 6.5, 1 mg/mL BSA, 60 °C, 0–14 mM substrate, authors' caution: maximum substrate below 2 x KM.
For series [3], the system named is O=[N+]([O-])c1ccc(O[C@@H]2O[C@@H](CO)[C@H](O)[C@H]2O)cc1. Conditions: 50 mM sodium phosphate pH 6.5, 1 mg/mL BSA, 60 °C, 0–5 mM substrate.

Consider THSAbf (Paenibacillus sp. HanTHS1), for which, in series [1], the Km came to 23.8 ± 4.1 mM, the kcat is 10.6 ± 0.9 s⁻¹ and the kcat/Km amounted to 440 M⁻¹ s⁻¹. In series [2], the Km amounted to 8.6 ± 0.9 mM, the kcat worked out at 327 ± 20 s⁻¹ and the kcat/Km came out at 38000 M⁻¹ s⁻¹. Moreover, in series [3], the Km turned out to be 0.31 ± 0.1 mM, the kcat turned out to be 328 ± 23 s⁻¹ and the kcat/Km is 1.05e+06 M⁻¹ s⁻¹.
